Laboratory results reported in patent US20210380680A1 (ZLLP, published 2021).
Read-outs that look alike come from different tables or passages of the source.

Assays:
[1] = biological target: T1, human Claudin 18.2 (CLDN18.2) (human, UniProt P56856-2 1-261); experiment: cell-based or functional assay
[2] = biological target: T1, human Claudin 18.2 (CLDN18.2); experiment: cell-based or functional assay; remark: listed apart in the source
[3] = biological target: T1, human Claudin 18.2 (CLDN18.2); experiment: cell-based or functional assay; remark: listed apart in the source
[4] = biological target: T1, human Claudin 18.2 (CLDN18.2); experiment: cell-based or functional assay; remark: listed apart in the source
[5] = biological target: T1, human Claudin 18.2 (CLDN18.2); experiment: FACS on CHO-CLDN18.2 cells
[6] = biological target: T1, human Claudin 18.2 (CLDN18.2); experiment: FACS on CHO-CLDN18.2 cells; remark: listed apart in the source
[7] = biological target: T1, human Claudin 18.2 (CLDN18.2); experiment: FACS on CHO-CLDN18.2 cells; remark: listed apart in the source
[8] = biological target: T1, human Claudin 18.2 (CLDN18.2); experiment: FACS Exp. 1, MFI ratio CHO-18.2 over CHO-18.1
[9] = biological target: T1, human Claudin 18.2 (CLDN18.2); experiment: FACS Exp. 2, MFI ratio CHO-18.2 over CHO-18.1
[10] = biological target: T1, human Claudin 18.2 (CLDN18.2); experiment: cell-based or functional assay; remark: listed apart in the source
[11] = biological target: T1, human Claudin 18.2 (CLDN18.2); experiment: cell-based or functional assay; remark: listed apart in the source

Binder | ADCC EC50, NCI-N87-18.2 cells, FcR-TANK effectors [1] [nM] | % ADCC @ 6.67 nM, NCI-N87-CLDN18.2, FcR-TANK [3] [%] | CDC EC50, human serum, CHO-CLDN18.2 [4] [nM] | EC50 [6] [nM] | ADCC EC50, NCI-N87-CLDN18.2, FcR-TANK [3] [nM] | other results
reference antibody 175D10 (xi175D10) (antibody, human IgG1, kappa, V domains shown, Fc variant D356/L358; also called chimeric 175D10) VH: QVQLQQPGAELVRPGASVKLSCKASGYTFTSYWINWVKQRPGQGLEWIGNIYPSDSYTNYNQKFKDKATLTVDKSSSTAYMQLSSPTSEDSAVYYCTRSWRGNSFDYWGQGTTLTVSS VL: DIVMTQSPSSLTVTAGEKVTMSCKSSQSLLNSGNQKNYLTWYQQKPGQPPKLLIYWASTRESGVPDRFTGSGSGTDFTLTISSVQAEDLAVYYCQNDYSYPFTFGSGTKLEIKR | 96.4 | 11.9 | 2.26 | 7.52 | – | % specific cytotoxicity @ 6.67 nM, NUGC4-CLDN18.2, PBMC [2]: 16.8%; ADCC EC50, NUGC4-CLDN18.2 cells, PBMC [2]: 9.21 nM; EC50 [5]: 9.32 nM; EC50 [7]: 7.24 nM; MFI_CHO-18.2/CHO-18.1 (@30 ug/ml) [8]: 1030; MFI_CHO-18.2/CHO-18.1 (@30 ug/ml) [9]: 1390
357B8F8-VH-S61I-VL-S32I (antibody, human IgG1, kappa, V domains shown) VH: QVQLKESGPGLVAPSQSLSITCTVSGFSLTSYGVHWVRQPPGKGLEWLGVIWPGGNTNYNIALMSRLSISKDNSKSQVFLKMNSLQTDDTAMYYCARDRRLAMDYWGQGTSVTVSS VL: DIVMTQSPSSLTVTAGEKVTMTCKSSQSLLNIGNQKNYLTWYQQKPGQPPKLLIYWASTRESGVPDRFTGSGSGTDFTLTISILQAEDLAVYYCQNDYSYPFTFGSGTKLEIKR | 159 | 2.3 | – | – | 1.81 | % specific cytotoxicity @ 6.67 nM, NUGC4-CLDN18.2, PBMC [2]: 19.6%; ADCC EC50, NUGC4-CLDN18.2 cells, PBMC [2]: 4.87 nM
Xi282A12F3(T62A)-V2-DL (antibody, V domains shown) VH: QVQLKESGPVLVQPSQTLSLTCTVAGFSLTSYNVYWVRQPPGKGLEWMGVIWNTGATRYNSALKSRLSISKDTSKSQVFLKMNSLQTEDTATYYCARDSAMPAIPFAYWGQGTLVTVSS VL: DIVMTQSPSSLAVSAGETVTINCKSSQSLFGSVRQKNYLAWYQQKPGQSPKLLIYLASTRESGVPDRFIGSGSGTDFTLTISSVQAEDLAKYYCQQYYDIPWTFGGGTKLELK | – | – | – | – | – | % internalization, NCI-N87-CLDN18.2, 37 C 2 h [10]: > 50%; % internalization, NUGC4-CLDN18.2, 37 C 2 h [10]: > 80%
364D1A7-VL-S32V (antibody, human IgG1, kappa, V domains shown, chimeric human IgG1, PTM site removed; also called 364D1A7-VL-32V) VH: DVQLVESGGGLVQPGGSRKLSCAASGFTFSSFGMHWVRQAPEKGLEWVAYISSGSGSIYYADTVKGRFTLSRDNPKNTLFLQMTSLRSEDTAIYYCATSYYYGNALEYWGQGTSVTVSS VL: DVVLTQSPSSLTVTEGEKVSMSCKSSQSLFNVGNQKNYLTWYQQKPGQTPTLLIYWASTRKSGVPDRFTGSGSGTDFTLTINTVQAEDLAVYYCQNVYSYPLTFGAGTKLDLKR | 12 | 15.3 | 1.49 | – | 0.34 | % specific cytotoxicity @ 6.67 nM, NUGC4-CLDN18.2, PBMC [2]: 26.6%; ADCC EC50, NUGC4-CLDN18.2 cells, PBMC [2]: 6.36 nM; EC50 [7]: 3.87 nM
364D1A7-VL-S32L (antibody, human IgG1, kappa, V domains shown) VH: DVQLVESGGGLVQPGGSRKLSCAASGFTFSSFGMHWVRQAPEKGLEWVAYISSGSGSIYYADTVKGRFTLSRDNPKNTLFLQMTSLRSEDTAIYYCATSYYYGNALEYWGQGTSVTVSS VL: DVVLTQSPSSLTVTEGEKVSMSCKSSQSLFNLGNQKNYLTWYQQKPGQTPTLLIYWASTRKSGVPDRFTGSGSGTDFTLTINTVQAEDLAVYYCQNVYSYPLTFGAGTKLDLKR | 9.56 | – | – | – | – | –
413H9F8-H1L1 (antibody, V domains shown, humanized IgG; constant regions not specified) VH: EVQLVESGGGLVQPGGSLRLSCAASGFTFSSFGMHWVRQAPGKGLEWVSYISSGSSPIYYVDKLKGRFTISRDNAKNSLYLQMNSLRAEDTAVYYCARAGYAVRNALDYWGQGTLVTVSS VL: DIVMTQSPDSLAVSLGERATINCKSSQSLLNVGNQKNYLAWYQQKPGQPPKLLIYGASTRESGVPDRFSGSGSGTDFTLTISSLQAEDVAVYYCQNDLFYPLTFGGGTKVEIK | – | 15.1 | 0.78 | 2.31 | 0.47 | % specific cytotoxicity @ 6.67 nM, NUGC4-CLDN18.2, PBMC [11]: 27%; ADCC EC50, NUGC4-CLDN18.2, PBMC [11]: 8.98 nM
413H9F8-cp1 (antibody, V domains shown, humanized IgG; constant regions not specified) VH: EVQLVESGGGLVQPGGSLRLSCAASGFTFSSFGMHWVRQAPGKGLEWVSYISSGSSPIYYVDKLKGRFTISRDNAKNSLYLQMNSLRAEDTAVYYCARAGYAVRNALDYWGQGTLVTVSS VL: EIVMTQSPPTLSLSPGERVTLSCKSSQSLLNVGNQKNYLAWYQQKPGQAPRLLIYGASTRESGIPARFSGSGSGTDFTLTISSLQPEDFAVYYCQNDLFYPLTFGGGTKVEIK | – | 13.3 | 1.66 | – | 0.44 | % specific cytotoxicity @ 6.67 nM, NUGC4-CLDN18.2, PBMC [11]: 31.5%; ADCC EC50, NUGC4-CLDN18.2, PBMC [11]: 7.18 nM; EC50 [5]: 2.6 nM
413H9F8-H1L3 (antibody, V domains shown, humanized IgG; constant regions not specified) VH: EVQLVESGGGLVQPGGSLRLSCAASGFTFSSFGMHWVRQAPGKGLEWVSYISSGSSPIYYVDKLKGRFTISRDNAKNSLYLQMNSLRAEDTAVYYCARAGYAVRNALDYWGQGTLVTVSS VL: DIVMTQSPDSLAVSLGERATINCKSSQSLLNVGNQKNYLAWYQQKPGQPPKLLIYGASTRESGVPDRFIGSGSGTDFTLTISSLQAEDVAVYFCQNDLFYPLTFGGGTKVEIK | – | 16.3 | 1.07 | 2.38 | 0.37 | % specific cytotoxicity @ 6.67 nM, NUGC4-CLDN18.2, PBMC [11]: 34.6%; ADCC EC50, NUGC4-CLDN18.2, PBMC [11]: 4.38 nM
413H9F8-H2L1 (antibody, V domains shown, humanized IgG; constant regions not specified) VH: EVQLVESGGGLVQPGGSLRLSCAASGFTFSSFGMHWVRQAPGKGLEWVAYISSGSSPIYYVDKLKGRFTISRDNAKNSLYLQMNSLRAEDTAVYYCARAGYAVRNALDYWGQGTLVTVSS VL: DIVMTQSPDSLAVSLGERATINCKSSQSLLNVGNQKNYLAWYQQKPGQPPKLLIYGASTRESGVPDRFSGSGSGTDFTLTISSLQAEDVAVYYCQNDLFYPLTFGGGTKVEIK | – | 14.1 | 1.06 | 2.43 | 0.31 | % specific cytotoxicity @ 6.67 nM, NUGC4-CLDN18.2, PBMC [11]: 34.3%; ADCC EC50, NUGC4-CLDN18.2, PBMC [11]: 5.97 nM
413H9F8-VL-S32V (antibody, human IgG1, kappa, V domains shown, chimeric human IgG1, PTM site removed; also called 413H9F8-VL-32V; 413H9F8-VL-532V) VH: DVQLVESGGGSVQPGGSRRLSCAASGFTFSSFGMHWVRQAPEKGLEWVAYISSGSSPIYYVDKLKGRFTVSRDNPKNTLFLQMTSLRSEDTAMYYCARAGYAVRNALDYWGQGTSITVSS VL: DIVMTQSPSSLSVSVGEKVTLSCKSSQSLLNVGNQKNYLAWYQQKTGQPPKLLIYGASTRESGVPDRFIGSGSGTDFTLTISSVQAEDLAVYFCQNDLFYPLTFGAGTKLELKR | 7.84 | 13.9 | 0.76 | 2.14 | 0.33 | % specific cytotoxicity @ 6.67 nM, NUGC4-CLDN18.2, PBMC [2]: 31.4%; ADCC EC50, NUGC4-CLDN18.2 cells, PBMC [2]: 7.69 nM; EC50 [5]: 1.84 nM
413H9F8-VL-S32L (antibody, human IgG1, kappa, V domains shown) VH: DVQLVESGGGSVQPGGSRRLSCAASGFTFSSFGMHWVRQAPEKGLEWVAYISSGSSPIYYVDKLKGRFTVSRDNPKNTLFLQMTSLRSEDTAMYYCARAGYAVRNALDYWGQGTSITVSS VL: DIVMTQSPSSLSVSVGEKVTLSCKSSQSLLNLGNQKNYLAWYQQKTGQPPKLLIYGASTRESGVPDRFIGSGSGTDFTLTISSVQAEDLAVYFCQNDLFYPLTFGAGTKLELKR | 8.56 | – | – | – | – | –
413H9F8-VL-S32V-V2-DL (antibody, V domains shown) VH: DVQLVESGGGSVQPGGSRRLSCAASGFTFSSFGMHWVRQAPEKGLEWVAYISSGSSPIYYVDKLKGRFTVSRDNPKNTLFLQMTSLRSEDTAMYYCARAGYAVRNALDYWGQGTSITVSS VL: DIVMTQSPSSLSVSVGEKVTLSCKSSQSLLNVGNQKNYLAWYQQKTGQPPKLLIYGASTRESGVPDRFIGSGSGTDFTLTISSVQAEDLAVYFCQNDLFYPLTFGAGTKLELK | – | – | – | – | – | % internalization, NCI-N87-CLDN18.2, 37 C 2 h [10]: < 30%; % internalization, NUGC4-CLDN18.2, 37 C 2 h [10]: < 15%
hz282-11-V2 (antibody, V domains shown) VH: QVQLQESGPGLVKPSETLSLTCTVSGFSLTSYNVYWIRQPPGKGLEWIGVIWNTGATRYNSALKSRVTISKDTSKSQVSLKLSSVTAADTAVYYCARDSAMPAIPFAYWGQGTLVTVSS VL: DIQMTQSPSSLSASVGDRVTITCKSSQSLFGSVRQKNYLAWYQQKPGKAPKLLIYLASTRESGVPSRFSGSGSGTDFTLTISSLQPEDFATYYCQQYYDIPWTFGGGTKVEIK | – | – | – | – | – | % internalization, NCI-N87-CLDN18.2, 37 C 2 h [10]: > 50%; % internalization, NUGC4-CLDN18.2, 37 C 2 h [10]: > 80%
hz282-15-V2 (antibody, V domains shown) VH: QVQLQESGPGLVKPSETLSLTCTVSGFSLTSYNVYWIRQPPGKGLEWIGVIWNTGATRYNSALKSRVTISKDTSKSQVSLKLSSVTAADTAVYYCARDSAMPAIPFAYWGQGTLVTVSS VL: DIQMTQSPSSLSASVGDRVTITCKSSQSLFGSVRQKNYLAWYQQKPGKSPKLLIYLASTRESGVPDRFSGSGSGTDFTLTISSLQPEDFAKYYCQQYYDIPWTFGGGTKVEIK | – | – | – | – | – | % internalization, NCI-N87-CLDN18.2, 37 C 2 h [10]: > 50%; % internalization, NUGC4-CLDN18.2, 37 C 2 h [10]: > 80%
